Laboratory results taken from PMC7939455.
Where two headings read alike, the source gives them in different places. Each block holds one molecule with its values, some of them ahead of it.

Legend:
[1] = target: Arg838(g- r+):Arg838(g+ r-) RetGC1 dimer (human) (UniProt Q02846)
[2] = target: Ser838(g- r+):Arg838(g+ r-) RetGC1 heterodimer (human) (UniProt Q02846)
[3] = target: Ser838(g- r+):Ser838(g+ r-) RetGC1 dimer (human) (UniProt Q02846)
[4] = target: R838S mOrange-RetGC1 (human) (UniProt Q02846); assay: co-localisation of fluorescent fusions in living cells (confocal microscopy, PCC); mOrange-RetGC1 co-expressed with GCAP1-GFP or RD3-GFP in HEK293 cells (GFP plasmid to RetGC1 plasmid ~1/100 molar ratio); confocal images 24-30 h after transfection; PCC of whole-cell images; the GFP proteins are diffuse without RetGC1 and go to the membrane cyclase when they bind; PCC < 0.6 indicates lack of co-localization
[5] = target: mOrange-tagged R666W RetGC1 (human) (UniProt Q02846); assay: as above
[6] = target: mOrange-tagged WT human RetGC1 (human) (UniProt Q02846); assay: as above
WT human RetGC1 (human) [7] = target: WT human RetGC1 (human) (UniProt Q02846)
[8] = target: R838S mOrange-RetGC1 (human) (UniProt Q02846); assay: co-localisation of fluorescent fusions in living cells (confocal microscopy, PCC); mOrange-RetGC1 co-expressed with GCAP1-GFP or RD3-GFP in HEK293 cells (GFP plasmid to RetGC1 plasmid ~1/100 molar ratio); confocal images 24-30 h after transfection; PCC of whole-cell images; the GFP proteins are diffuse without RetGC1 and go to the membrane cyclase when they bind; PCC < 0.6 indicates lack of co-localization; remark: listed apart in the source
[9] = target: mOrange-tagged G982VfsX39 RetGC1 (human) (UniProt Q02846); assay: as above
[10] = target: mOrange-tagged L911F RetGC1 (human) (UniProt Q02846); assay: as above
[11] = target: mOrange-tagged R666W RetGC1 (human) (UniProt Q02846); assay: as above; remark: listed apart in the source
[12] = target: mOrange-tagged R761W RetGC1 (human) (UniProt Q02846); assay: as above
[13] = target: mOrange-tagged WT human RetGC1 (human) (UniProt Q02846); assay: as above; remark: listed apart in the source
R666W RetGC1 (human) = R666W RetGC1 (human) (UniProt Q02846)
WT human RetGC1 (human) [14] = target: WT human RetGC1 (human) (UniProt Q02846); remark: listed apart in the source

B1: Human GCAP2, N-myristoylated (natural protein)
chain: MGQEFSWEEAEAAGEIDVAELQEWYKKFVMECPSGTLFMHEFKRFFKVTDDEEASQYVEGMFRAFDKNGDNTIDFLEYVAALNLVLRGTLEHKLKWTFKIYDKDGNGCIDRLELLNIVEGIYQLKKACRRELQTEQGQLLTPEEVVDRIFLLVDENGDGQLSLNEFVEGARRDKWVMKMLQMDMNPSSWLAQQRRKSAMF
modifications: N-myristoylated
[GCAP]1/2: half-saturating concentration of Mg2+ GCAP2 for activation of guanylyl cyclase activity in HEK293 membranes (10 mM Mg2+, 2 mM EGTA) (WT human RetGC1 (human) [7]): 19 µM

B3: GCAP1-GFP (natural protein)
chain: MGNIMDGKSVEELSSTECHQWYKKFMTECPSGQLTLYEFRQFFGLKNLSPWASQYVEQMFETFDFNKDGYIDFMEYVAALSLVLKGKVEQKLRWYFKLYDVDGNGCIDRDELLTIIRAIRAINPCSDSTMTAEEFTDTVFSKIDVNGDGELSLEEFMEGVQKDQMLLDTLTRSLDLTRIVRRLQNGEQDEEGASGRETEAAEADG
PCC (Pearson's correlation coefficient of co-localization) [8]: 0.89
PCC (Pearson's correlation coefficient of co-localization) [9]: 0.87
PCC (Pearson's correlation coefficient of co-localization) [10]: 0.89
PCC (Pearson's correlation coefficient of co-localization) [11]: 0.64
PCC (Pearson's correlation coefficient of co-localization) [12]: 0.64
PCC (Pearson's correlation coefficient of co-localization) [13]: 0.9

B4: Human GCAP1 (E6S), N-myristoylated (natural protein)
chain: MGNVMSGKSVEELSSTECHQWYKKFMTECPSGQLTLYEFRQFFGLKNLSPSASQYVEQMFETFDFNKDGYIDFMEYVAALSLVLKGKVEQKLRWYFKLYDVDGNGCIDRDELLTIIQAIRAINPCSDTTMTAEEFTDTVFSKIDVNGDGELSLEEFIEGVQKDQMLLDTLTRSLDLTRIVRRLQNGEQDEEGADEAAEAAG
modifications: N-myristoylated
[GCAP]1/2: half-saturating concentration of Mg2+ GCAP1 for activation of guanylyl cyclase activity in HEK293 membranes (10 mM Mg2+, 2 mM EGTA) (WT human RetGC1 (human) [7]): 1.13 µM
[GCAP1]1/2: half-saturating concentration of Mg2+ GCAP1 for activation of guanylyl cyclase activity in HEK293 membranes (10 mM Mg2+, 2 mM EGTA) (R666W RetGC1 (human)): 7.25 µM
[GCAP]1/2: half-saturating concentration of GCAP1 for RetGC1 activation in 10 mM Mg2+ and 2 mM EGTA (Fig. 10C) [1]: 1.65 µM
[GCAP]1/2: half-saturating concentration of GCAP1 for RetGC1 activation in 10 mM Mg2+ and 2 mM EGTA (Fig. 10C) [2]: 0.22 µM
[GCAP]1/2: half-saturating concentration of GCAP1 for RetGC1 activation in 10 mM Mg2+ and 2 mM EGTA (Fig. 10C) [3]: 0.4 µM
[GCAP]1/2: half-saturating concentration of GCAP1 for RetGC1 activation in 10 mM Mg2+ and 2 mM EGTA (Fig. 10C) (WT human RetGC1 (human) [14]): 1.1 µM

Further lines, results first:

[RD3]1/2: RD3 concentration causing 50% inhibition of RetGC1 activity preactivated by 1.5 μM GCAP1 in 10 mM Mg2+ and 2 mM EGTA; pair acted on: GCAP1 with the cyclase dimer [1]: 2.3 nM
[RD3]1/2: RD3 concentration causing 50% inhibition of RetGC1 activity preactivated by 1.5 μM GCAP1 in 10 mM Mg2+ and 2 mM EGTA; pair acted on: GCAP1 with the cyclase dimer [2]: 42 nM
[RD3]1/2: RD3 concentration causing 50% inhibition of RetGC1 activity preactivated by 1.5 μM GCAP1 in 10 mM Mg2+ and 2 mM EGTA; pair acted on: GCAP1 with the cyclase dimer [3]: 23 nM
Molecule: Recombinant human RD3 (from UniProt Q7Z3Z2 1-195) (natural protein)

PCC (Pearson's correlation coefficient of co-localization) [4]: 0.91
PCC (Pearson's correlation coefficient of co-localization) [5]: 0.9
PCC (Pearson's correlation coefficient of co-localization) [6]: 0.91
Molecule: RD3-GFP (from UniProt Q7Z3Z2 1-195) (natural protein)

[GCAP]1/2: half-saturating concentration of Mg2+ GCAP3 for activation of guanylyl cyclase activity in HEK293 membranes (10 mM Mg2+, 2 mM EGTA) (WT human RetGC1 (human) [7]): 5.3 µM
B2: Human GCAP3, N-myristoylated (natural protein)
chain: MGNGKSIAGDQKAVPTQETHVWYRTFMMEYPSGLQTLHEFKTLLGLQGLNQKANKHIDQVYNTFDTNKDGFVDFLEFIAAVNLIMQEKMEQKLKWYFKLYDADGNGSIDKNELLDMFMAVQALNGQQTLSPEEFINLVFHKIDINNDGELTLEEFINGMAKDQDLLEIVYKSFDFSNVLRVICNGKQPDMETDSSKSPDKAGLGKVKMK
modifications: N-myristoylated
